Laboratory results taken from US20260176319A1 (KALLYOPE, published 2026).
Starred links: 1 amine or outer side, 2 acyl side, 3 side chain; linkers in the order of their positions; H or OH if unused. Non-standard residues stand in square brackets, D forms with d. *: point of attachment. Trp(7-Me) = Cc1cccc2c(C[C@H](N)C(=O)O)c[nH]c12; C18 diacid = O=C(O)CCCCCCCCCCCCCCCCC(=O)*; γGlu = O=C(O)[C@H](CCC(=O)[*:2])N[*:1]; Palmitoyl = CCCCCCCCCCCCCCCC(=O)*; Nle = CCCC[C@H](N)C(=O)O; AEEA = NCCOCCOCC(=O)O; Sar = CNCC(=O)O

Molecular target: human GRP receptor (human, UniProt P30550 1-384)
Sequence (P30550 whole entry): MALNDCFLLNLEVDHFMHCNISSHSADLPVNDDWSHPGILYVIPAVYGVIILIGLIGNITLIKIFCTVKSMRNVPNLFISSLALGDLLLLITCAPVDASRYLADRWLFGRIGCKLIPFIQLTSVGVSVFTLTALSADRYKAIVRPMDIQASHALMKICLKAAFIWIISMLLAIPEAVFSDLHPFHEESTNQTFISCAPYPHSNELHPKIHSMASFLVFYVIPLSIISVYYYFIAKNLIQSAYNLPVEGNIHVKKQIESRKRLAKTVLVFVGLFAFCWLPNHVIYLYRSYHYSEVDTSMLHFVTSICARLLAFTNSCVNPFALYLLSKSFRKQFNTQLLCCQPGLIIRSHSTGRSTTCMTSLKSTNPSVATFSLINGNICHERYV
Assay: cell-based or functional assay

B1: Peptide 117 (peptide)
peptide: {C18 diacid}-[γGlu][AEEA][AEEA][AEEA][AEEA]GRH[Trp(7-Me)]AV[dA]HL[Nle]-NH2
SMILES: CCCC[C@H](NC(=O)[C@H](CC(C)C)NC(=O)[C@H](Cc1c[nH]cn1)NC(=O)[C@@H](C)NC(=O)[C@@H](NC(=O)[C@H](C)NC(=O)[C@H](Cc1c[nH]c2c(C)cccc12)NC(=O)[C@H](Cc1c[nH]cn1)NC(=O)[C@H](CCCNC(=N)N)NC(=O)CNC(=O)COCCOCCNC(=O)COCCOCCNC(=O)COCCOCCNC(=O)COCCOCCNC(=O)CC[C@H](NC(=O)CCCCCCCCCCCCCCCCC(=O)O)C(=O)O)C(C)C)C(N)=O
hIP1 GRPR EC50: 0.0165 µM

B2: Peptide 112 (peptide)
peptide: Palmitoyl-[γGlu][AEEA][AEEA]GNH[Trp(7-Me)]AV[dA]HL[Nle][Sar]-NH2
SMILES: CCCCCCCCCCCCCCCC(=O)N[C@@H](CCC(=O)NCCOCCOCC(=O)NCCOCCOCC(=O)NCC(=O)N[C@@H](CC(N)=O)C(=O)N[C@@H](Cc1c[nH]cn1)C(=O)N[C@@H](Cc1c[nH]c2c(C)cccc12)C(=O)N[C@@H](C)C(=O)N[C@H](C(=O)N[C@H](C)C(=O)N[C@@H](Cc1c[nH]cn1)C(=O)N[C@@H](CC(C)C)C(=O)N[C@@H](CCCC)C(=O)N(C)CC(N)=O)C(C)C)C(=O)O
hIP1 GRPR EC50: > 10 µM

B3: Peptide 115 (peptide)
peptide: {C18 diacid}-[γGlu][AEEA][AEEA]GNHW[dA]V[dA]HL[Nle][Sar]-NH2
SMILES: CCCC[C@H](NC(=O)[C@H](CC(C)C)NC(=O)[C@H](Cc1c[nH]cn1)NC(=O)[C@@H](C)NC(=O)[C@@H](NC(=O)[C@@H](C)NC(=O)[C@H](Cc1c[nH]c2ccccc12)NC(=O)[C@H](Cc1c[nH]cn1)NC(=O)[C@H](CC(N)=O)NC(=O)CNC(=O)COCCOCCNC(=O)COCCOCCNC(=O)CC[C@H](NC(=O)CCCCCCCCCCCCCCCCC(=O)O)C(=O)O)C(C)C)C(=O)N(C)CC(N)=O
hIP1 GRPR EC50: > 10 µM

B4: Peptide 116 (peptide)
peptide: {C18 diacid}-[γGlu][AEEA][AEEA]GRHHAV[dA]HL[Nle]-NH2
SMILES: CCCC[C@H](NC(=O)[C@H](CC(C)C)NC(=O)[C@H](Cc1c[nH]cn1)NC(=O)[C@@H](C)NC(=O)[C@@H](NC(=O)[C@H](C)NC(=O)[C@H](Cc1c[nH]cn1)NC(=O)[C@H](Cc1c[nH]cn1)NC(=O)[C@H](CCCNC(=N)N)NC(=O)CNC(=O)COCCOCCNC(=O)COCCOCCNC(=O)CC[C@H](NC(=O)CCCCCCCCCCCCCCCCC(=O)O)C(=O)O)C(C)C)C(N)=O
hIP1 GRPR EC50: > 10 µM

B5: Peptide 114 (peptide)
peptide: {C18 diacid}-[γGlu][AEEA][AEEA]GNHWAV[dA]HL[Nle]R-NH2
SMILES: CCCC[C@H](NC(=O)[C@H](CC(C)C)NC(=O)[C@H](Cc1c[nH]cn1)NC(=O)[C@@H](C)NC(=O)[C@@H](NC(=O)[C@H](C)NC(=O)[C@H](Cc1c[nH]c2ccccc12)NC(=O)[C@H](Cc1c[nH]cn1)NC(=O)[C@H](CC(N)=O)NC(=O)CNC(=O)COCCOCCNC(=O)COCCOCCNC(=O)CC[C@H](NC(=O)CCCCCCCCCCCCCCCCC(=O)O)C(=O)O)C(C)C)C(=O)N[C@@H](CCCNC(=N)N)C(N)=O
hIP1 GRPR EC50: > 10 µM

B6: Peptide 118 (peptide)
peptide: {C18 diacid}-[γGlu][AEEA][AEEA][AEEA][AEEA]GRHWAV[dA]HL[Nle]-NH2
SMILES: CCCC[C@H](NC(=O)[C@H](CC(C)C)NC(=O)[C@H](Cc1c[nH]cn1)NC(=O)[C@@H](C)NC(=O)[C@@H](NC(=O)[C@H](C)NC(=O)[C@H](Cc1c[nH]c2ccccc12)NC(=O)[C@H](Cc1c[nH]cn1)NC(=O)[C@H](CCCNC(=N)N)NC(=O)CNC(=O)COCCOCCNC(=O)COCCOCCNC(=O)COCCOCCNC(=O)COCCOCCNC(=O)CC[C@H](NC(=O)CCCCCCCCCCCCCCCCC(=O)O)C(=O)O)C(C)C)C(N)=O
hIP1 GRPR EC50: 0.00802 µM
